Source: US20030027246A1 (published 2003)
Where two headings read alike, the source gives them in different places. Values belong to the binder of their own block, whether it stands above or below them.

Experiments:
[1] = molecular target: T1, membrane-bound HLA-A0201 molecule on T2 cells (human); test: T2 cell HLA-A0201 stabilisation at 125.0 µM peptide, BB7.2 staining, flow cytometry
T1 construct: whole, on cells; also called human MHC class 1 molecule
Method: (§1) Thus, the detection of this specific epitope is indicative of stable membrane-bound HLA-A0201 molecules loaded with peptide.
(§2) T2 cells were propagated in Iscove's complete medium (Iscove's medium supplemented with 10% heat-inactivated bovine serum, 120.0 units per ml of penicillin G sodium, 120 μg per ml of streptomycin sulphate, and 0.35 mg per ml of L-glutamine). The ability of PSMA peptides (Table 1) to bind and stabilize surface HLA-A0201 molecules on T2 cells was determined utilizing a protocol documented in the art (Deng, Y. (1997) J Immunol 158:1507-1515). In essence, 0.5×10⁶ T2 cells were incubated with 125.0 μM of the test peptide in 200.0 μl of serum-free culture medium (Iscove's medium supplemented with 120.0 units per ml of penicillin G sodium, 120.0 μg per ml of streptomycin sulphate and 0.35 mg per ml of L-glutamine) overnight at 37° C. Subsequently, cells were washed twice with Iscove's medium (without bovine serum) to remove free PSMA peptide. To the cell pellet was added 1.0 ml of complete Iscove's medium (supplemented with fetal bovine serum (10% final)) containing 5.0 μg per ml of brefeldin A (Sigma), 12.5 μg per ml of anisomycin (Sigma) and 5.0 μg per ml of cyclohexamide (Sigma). The samples were incubated for 3.0 hr in a 37° C. CO₂ incubator. The cells were subsequently incubated 30 min on ice prior to two washes with ice-cold PBA (phosphate buffered saline (pH 7.2) containing 2.0% bovine serum). 100.0 μl of PBA containing 5.0 μg of monoclonal antibody BB7.2 was added to each test sample. The reaction was allowed to proceed on ice for 45 min. Cells were then washed three times with ice-cold PBA. The binding of BB7.2 was detected via the addition of 100.0 μl of PBA containing 1.0 μg of goat anti-mouse IgG-Fc fluorescein (FITC) conjugate (BETHYL Laboratories Inc.). After a 30 min incubation on ice, cells were twice washed with ice-cold PBA, and twice with ice-cold PBS (pH 7.2). […] Samples were analyzed by Flow Cytometry. Results were expressed in units of Fluorescence Index (FI), calculated by the equation: […]

[2] = molecular target: T1, membrane-bound HLA-A0201 molecule on T2 …; test: T2 cell HLA-A0201 stabilisation, BB7.2 staining, flow cytometry
Method: as §1, §2

[3] = molecular target: T1, membrane-bound HLA-A0201 molecule on T2 …; test: as above; remark: listed apart in the source
Method: as §2, with “The samples were incubated for 3.0 hr in a 37° C. CO₂ incubator. The cells were subsequently incubated 30 min on ice prior to two washes with ice-cold PBA (phosphate buffered saline (pH 7.2) containing 2.0% bovine serum). 100.0 μl of PBA containing 5.0 μg of monoclonal antibody BB7.2 was added to each test sample. The reaction was allowed to proceed on ice for 45 min. Cells were then washed three times with ice-cold PBA.” left out, “Inc.).” for “Inc.). After a 30 min incubation on ice, cells were twice washed with ice-cold PBA, and twice with ice-cold PBS (pH 7.2).”

B1: CLP-326 (peptide)
peptide: LLHETDSAV
notes: also called PSMA 4-12
Fluorescence Index (FI) [1]: 0.6 FI

B4: CLP-331 (peptide)
peptide: NLNGAGDPL
notes: also called PSMA 260-268
binding result [2]: no binding

B7: CLP-336 (peptide)
peptide: MMNDQLMFL
notes: also called CPL-336; PSMA 663-671
Fluorescence Index (FI) [1]: 3.7 FI

Results, then the binder that gave them:

binding result [2]: no binding
B2: CLP-334 (peptide)
peptide: PMFKYHLTV
notes: also called PSMA 568-576

binding result [2]: no binding
B3: CLP-329 (peptide)
peptide: NMKAFLDEL
notes: also called PSMA 57-65

binding result [3]: no binding (tested: 125.0 µM peptide)
B5: CLP-324 (peptide)
peptide: LDSVELAHY
notes: Negative control; also called negative control peptide; PSMA 105-113

Fluorescence Index (FI) [1]: 2.7 FI
B6: CLP-333 (peptide)
peptide: LMYSLVHNL
notes: also called PSMA 469-477
